Patent US20260053904A1 (BIOATLA, published 2026)
Where a chain is given by its changes, count along the chain named.

What was measured:
[1] = target: T1, cyno EpCAM (recombinant, ELISA antigen) (cynomolgus monkey); experiment: direct binding ELISA, cyno EpCAM, pH 6.0 (printed as IC50)
T1 construct: extracellular domain; also called cynomolgus EpCAM extracellular domain

[2] = target: T2, recombinant human EpCAM extracellular domain (human, UniProt P16422 24-265); experiment: direct binding ELISA, human EpCAM; ratio of the printed IC50 at pH 7.4 to pH 6.0
T2 construct: extracellular domain; Plate-coated antigen of the ELISAs; also called human EpCAM ECD; recombinant EpCAM antigen
T2 sequence (looked up): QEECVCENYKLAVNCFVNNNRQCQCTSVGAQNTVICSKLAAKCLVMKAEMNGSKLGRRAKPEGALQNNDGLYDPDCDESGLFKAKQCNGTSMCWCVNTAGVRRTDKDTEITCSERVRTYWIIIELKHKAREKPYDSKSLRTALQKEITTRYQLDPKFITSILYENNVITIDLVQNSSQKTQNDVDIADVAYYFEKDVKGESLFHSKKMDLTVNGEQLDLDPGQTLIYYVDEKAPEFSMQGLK

[3] = target: T2, recombinant human EpCAM extracellular …; experiment: direct binding ELISA, human EpCAM, pH 7.4 (table prints IC50, the text paragraph 376 says EC50)
[4] = target: T2, recombinant human EpCAM extracellular …; experiment: direct binding ELISA, human EpCAM, pH 6.0 (table prints IC50, the text paragraph 376 says EC50)
[5] = target: T1, cyno EpCAM (recombinant, ELISA antigen); experiment: direct binding ELISA, cyno EpCAM; ratio of the printed IC50 at pH 7.4 to pH 6.0
[6] = target: T1, cyno EpCAM (recombinant, ELISA antigen); experiment: direct binding ELISA, cyno EpCAM, pH 7.4 (printed as IC50)
[7] = target: T2, recombinant human EpCAM extracellular …; experiment: ELISA with pH titration, human EpCAM; ratio of binding activities at pH 6.0 and pH 7.4
Protocol: (§1) Binding activities of conjugated humanized conditionally active anti-EpCAM antibodies to human EpCAM were measured by ELISA with pH titration. […] The ratios of binding activities to human EpCAM of the conjugated humanized conditionally active anti-EpCAM antibodies at pH 6.0 and pH 7.4, as well as their pH inflection points are summarized in Table 14.
(§2) The ELISA assay was performed using the following protocol: [0388] 1) Coat ELISA plates with 100 μL of 0.5 μg/mL (06_20_17 and 06_28_17 Experiments) or 1 μg/mL (07_06_17 and 07_11_17 Experiments) recombinant EpCAM antigen in carbonate-bicarbonate coating buffer [0389] 2) Cover plates with sealing film and incubate overnight at 4° C. [0390] 3) Decant plates and tap out residual liquid on a stack of paper towels [0391] […] 5) Add 200 μL of various pH incubation buffers to the wells according to the sample map.

[8] = target: T2, recombinant human EpCAM extracellular …; experiment: ELISA with pH titration, human EpCAM
Protocol: as §1, §2

[9] = target: T1, cyno EpCAM (recombinant, ELISA antigen); experiment: ELISA of MMAE conjugates, cyno EpCAM, pH 6.0
Protocol: (§3) A similar ELISA analysis was also carried out using cyno EpCAM to measure the binding affinities of the conjugated humanized conditionally active anti-EpCAM antibodies. […] The EC50 values for binding to the cyno EpCAM by the conjugated humanized conditionally active anti-EpCAM antibodies are summarized in Table 13.
as §2

[10] = target: T2, recombinant human EpCAM extracellular …; experiment: ELISA of MMAE conjugates, human EpCAM, pH 6.0
Protocol: (§4) The humanized conditionally active anti-EpCAM antibodies were conjugated to MMAE to create antibody drug conjugates. Binding activities of the conjugated humanized conditionally active anti-EpCAM antibodies to human EpCAM were measured by ELISA at pH 6.0 and pH 7.4 at different antibody concentrations. […] The EC50 values for binding to the human EpCAM by the conjugated humanized conditionally active anti-EpCAM antibodies are summarized in Table 12.
as §2

[11] = target: T1, cyno EpCAM (recombinant, ELISA antigen); experiment: ELISA with pH titration, cyno EpCAM
Protocol: (§5) Binding activities of the conjugated humanized conditionally active anti-EpCAM antibodies to cyno EpCAM were also measured by ELISA with pH titration. […] The ratios of binding activities at pH 6.0 and pH 7.4 to the cyno EpCAM by the conjugated humanized conditionally active anti-EpCAM antibodies, as well as their pH inflection points are summarized in Table 15.
as §2

[12] = target: T3, human EpCAM expressed on cells (CHO, Colo205, 293) (human, UniProt P16422 24-314); experiment: FACS of MMAE conjugates on Colo205 cells expressing human EpCAM, pH 6.0
T3 construct: whole, on cells; also called CHO cells expressing human EpCAM; Colo205 cells expressing human EpCAM
T3 sequence (looked up): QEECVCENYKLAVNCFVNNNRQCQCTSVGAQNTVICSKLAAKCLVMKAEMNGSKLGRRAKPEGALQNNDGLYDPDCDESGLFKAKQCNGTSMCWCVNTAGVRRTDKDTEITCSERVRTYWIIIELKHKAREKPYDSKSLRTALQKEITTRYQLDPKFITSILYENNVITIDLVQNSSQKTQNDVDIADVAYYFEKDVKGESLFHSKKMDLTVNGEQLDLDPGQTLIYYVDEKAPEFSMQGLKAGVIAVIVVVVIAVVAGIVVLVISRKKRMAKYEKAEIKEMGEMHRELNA
Protocol: (§6) Binding activities of the conjugated humanized conditionally active anti-EpCAM antibodies (with MMAE) to Colo205 cells expressing human EpCAM was measured by FACS at two different pH: 6.0 and 7.4. […] The EC50 values for binding to the Colo205 cells expressing human EpCAM by the conjugated humanized conditionally active anti-EpCAM antibodies are summarized in Table 16.

[13] = target: T3, human EpCAM expressed on cells (CHO, …); experiment: FACS of MMAE conjugates on 293 cells expressing human EpCAM, pH 6.0
Protocol: (§7) A similar FACS analysis was also carried out using 293 cells expressing human EpCAM. […] The EC50 values for binding to the 293 cells expressing human EpCAM by the conjugated humanized conditionally active anti-EpCAM antibodies are summarized in Table 17.

[14] = target: T4, cyno EpCAM expressed on 293 cells (cynomolgus monkey); experiment: FACS of MMAE conjugates on 293 cells expressing cyno EpCAM, pH 6.0
T4 construct: whole, on cells; also called 293 cells expressing cyno EpCAM
T4 sequence (Q1WER1 24-314): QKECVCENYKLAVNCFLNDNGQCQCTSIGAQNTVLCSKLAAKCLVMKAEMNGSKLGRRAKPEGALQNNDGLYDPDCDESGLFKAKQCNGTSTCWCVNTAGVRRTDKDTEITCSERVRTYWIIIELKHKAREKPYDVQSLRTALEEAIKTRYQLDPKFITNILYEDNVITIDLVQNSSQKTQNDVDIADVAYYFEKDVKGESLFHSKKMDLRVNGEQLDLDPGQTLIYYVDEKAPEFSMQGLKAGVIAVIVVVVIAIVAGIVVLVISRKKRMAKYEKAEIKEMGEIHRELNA
Protocol: (§8) A similar FACS analysis was also carried out using 293 cells expressing cyno EpCAM. […] The EC50 values for binding to the 293 cells expressing cyno EpCAM by the conjugated humanized conditionally active anti-EpCAM antibodies are summarized in Table 18.

[15] = target: T1, cyno EpCAM (recombinant, ELISA antigen); experiment: ELISA with pH titration, cyno EpCAM; ratio of binding activities at pH 6.0 and pH 7.4
Protocol: as §5, §2

[16] = target: T1, cyno EpCAM (recombinant, ELISA antigen); experiment: ELISA of MMAE conjugates, cyno EpCAM, pH 7.4
Protocol: as §3, §2

[17] = target: T3, human EpCAM expressed on cells (CHO, …); experiment: FACS of MMAE conjugates on Colo205 cells expressing human EpCAM, pH 7.4
Protocol: as §6

[18] = target: T3, human EpCAM expressed on cells (CHO, …); experiment: FACS of MMAE conjugates on 293 cells expressing human EpCAM, pH 7.4
Protocol: as §7

[19] = target: T4, cyno EpCAM expressed on 293 cells; experiment: FACS of MMAE conjugates on 293 cells expressing cyno EpCAM, pH 7.4
Protocol: as §8

[20] = target: T2, recombinant human EpCAM extracellular …; experiment: ELISA of MMAE conjugates, human EpCAM, pH 7.4
Protocol: as §4, §2

[21] = target: T3, human EpCAM expressed on cells (CHO, …); experiment: cell-based or functional assay

B1: BA-105-06-01 (antibody, V domains shown)
VH: EVQLVQSGAEVKKPGATVKISCKVSGYTFTSYWMHWIRQPPGKGLEWIGYIRPSTGYTEYNQKFKDRFTISRDNSKNTLYLQMNSLRAEDTAVYYCGRGDNWVGFANWGQGTLVTVSS
VL: EIVLTQSPDFQSVTPKEKVTITCSASSSISYMHWYQQKPGKAPKLLIYSTSKLASGVPDRFSGSGSGTDFTLKISRVEAEDVGVYYCHQWSTYETFGQGTKVEIK
notes: Humanized
[1]
  IC50: 0.00371 µg/mL
[2]
  ratio (pH7.4/pH6.0): 5.6
[3]
  IC50: 0.168 µg/mL
[4]
  IC50: 0.0299 µg/mL
[5]
  ratio (pH7.4/pH6.0): 17.1
[6]
  IC50: 0.0635 µg/mL

B2: BA-105.4-01-05 8317-vcMMAE (antibody, V domains shown)
VH: B1 VH
VL: B1 VL with K52N
modifications: antibody conjugated to vcMMAE; chain and residues of attachment not stated
[7]
  ratio (pH 6.0/7.4): 2.39
[8]
  pH inflection point: 6.98 pH
[9]
  EC50: 0.0659 µg/mL
[10]
  EC50: 0.0306 µg/mL
[11]
  pH inflection point: 6.28 pH
[12]
  EC50: 0.188 µg/mL
[13]
  EC50: 0.0772 µg/mL
[14]
  EC50: 5.54 µg/mL
[15]
  ratio (pH 6.0/7.4): 2.76
[16]
  EC50: 0.3 µg/mL
[17]
  EC50: 0.203 µg/mL
[18]
  EC50: 0.109 µg/mL
[19]
  EC50: 43.4 µg/mL
[20]
  EC50: 0.0703 µg/mL

B3: BA-105.4-02-01 8318-vcMMAE (antibody, V domains shown)
VH: B1 VH with I37V, P40A, K43Q, I48M
VL: EIVMTQSPATLSVSPGERATLSCSASSSISYMHWYQQKPGKAPKLLIYSTSNLASGVPSRFSGSGSGTEFTLTISSLQPDDFATYYCHQWSTYETFGQGTKVEIK
modifications: antibody conjugated to vcMMAE; chain and residues of attachment not stated
[7]
  ratio (pH 6.0/7.4): 6.74
[8]
  pH inflection point: 6.83 pH
[9]
  EC50: 0.0809 µg/mL
[10]
  EC50: 0.0324 µg/mL
[11]
  pH inflection point: 6.16 pH
[12]
  EC50: 0.464 µg/mL
[13]
  EC50: 0.206 µg/mL
[14]
  EC50: 7.96 µg/mL
[15]
  ratio (pH 6.0/7.4): 3.61
[16]
  EC50: 0.249 µg/mL
[17]
  EC50: 0.693 µg/mL
[18]
  EC50: 0.335 µg/mL
[19]
  EC50: 61.1 µg/mL
[20]
  EC50: 0.22 µg/mL

B4: BA-105.4-01-02 8316-vcMMAE (antibody, V domains shown)
VH: EVQLVQSGAEVKKPGESLRISCKGSGYTFTSYWMHWIRQSPSRGLEWLGYIRPSTGYTEYNQKFKDRVTISADKSISTAYLQWSSLKASDTAMYYCGRGDNWVGFANWGQGTLVTVSS
VL: B1 VL with K52N
modifications: antibody conjugated to vcMMAE; chain and residues of attachment not stated
[7]
  ratio (pH 6.0/7.4): 1.75
[9]
  EC50: 0.0877 µg/mL
[10]
  EC50: 0.0392 µg/mL
[11]
  pH inflection point: 6.3 pH
[12]
  EC50: 0.15 µg/mL
[13]
  EC50: 0.0637 µg/mL
[14]
  EC50: 4.72 µg/mL
[15]
  ratio (pH 6.0/7.4): 2.75
[16]
  EC50: 0.257 µg/mL
[17]
  EC50: 0.153 µg/mL
[18]
  EC50: 0.0849 µg/mL
[19]
  EC50: 17.7 µg/mL
[20]
  EC50: 0.127 µg/mL

B5: BA-105-06-02 (antibody, V domains shown)
VH: B1 VH
VL: B1 VL with K52S
notes: Humanized
[1]
  IC50: 0.152 µg/mL
[2]
  ratio (pH7.4/pH6.0): 2.5
[3]
  IC50: 0.262 µg/mL
[4]
  IC50: 0.105 µg/mL
[5]
  ratio (pH7.4/pH6.0): 4.44
[6]
  IC50: 0.673 µg/mL

B6: BA-105-01-01 7376-vcMMAE (antibody, V domains shown)
VH: QVQLQQSGAELAKPGASVKVSCKASGYTFTSYWMHWVKQRPGQGLEWIGYIRPSTGYTEYNQKFKDKATLTADKSSSTAYMQLSSLTFEDSAVYYCGRGDNWVGFANWGQGTLVTVSA
VL: QIVLTQSPAIMSASLGEEIALTCSASSSISYMHWYQQKSGTSPKLLIYSTSNLASGVPSRFSGSGSGTFYSLTISSVEAEDAADYFCHQWSTYHTFGSGTKLEIK
modifications: antibody conjugated to vcMMAE; chain and residues of attachment not stated
[8]
  pH inflection point: 6.71 pH
[9]
  EC50: 0.0311 µg/mL
[21]
  IC50 for the in vitro killing of Colo205 cells, pH6.0: 12.9 ng/mL
  IC50 for the in vitro killing of Colo205 cells, pH7.4: 16.8 ng/mL
  ratio (pH7.4/pH6.0) of the IC50 for the in vitro killing of Colo205 cells: 1.3
[10]
  EC50: 0.024 µg/mL
[11]
  pH inflection point: 5.07 pH
[12]
  EC50: 0.301 µg/mL
[13]
  EC50: 0.129 µg/mL
[14]
  EC50: 1.36 µg/mL
[15]
  ratio (pH 6.0/7.4): 0.93
[16]
  EC50: 0.0234 µg/mL
[17]
  EC50: 0.375 µg/mL
[18]
  EC50: 0.112 µg/mL
[19]
  EC50: 1.74 µg/mL
[20]
  EC50: 0.0147 µg/mL
